Reference: patent publication US20250134019A1, “TRIKETONE DIOXYGENASE VARIANTS FOR HERBICIDE TOLERANCE” (Monsanto Technology LLC, priority 2022, published 2025)
Where a chain is given by its changes, count along the chain named. In names and notes the source's numbering stands.

Experiments:
Format in all cases: in vivo
[1] = test system: transgenic soybean plants; assay: Response of R0 soybean plants transformed with Round 2 TDO variants to mesotrione; details: R0 transgenic soybean sprayed with mesotrione
Text: The next set of experiments was focused on determining if the balance between improved enzyme stability could outweigh a reduction in activity observed at optimal temperatures in soybean plants. […] To test this hypothesis, the eight variants from Round 2 biochemical analysis described in the preceding paragraph were transformed into soybean through Agrobacterium-mediated transformation, along with three controls. One of the controls (TDO_9) was a variant from the high-throughput screens that had poor activity. Two other controls were the D08 variant and the Os.TDO. R0 transgenic soybean plants were sprayed with the mesotrione herbicide to screen for herbicide tolerance. […] These included the Os.TDO control, the D08 variant and one Round 2 variant. The plants were scored for percent injury as described in the previous examples.

transgenic cotton plants = assay: Mesotrione treatment of cotton plants expressing TDO variants, crop injury; details: for Crop Injury (%), 210 g/ha (2X) Mesotrione / Crop Injury (%), 840 g/ha (8X) Mesotrione: R2 cotton sprayed at V3
Description: Cotton is a crop of interest that is often exposed to high temperature growing conditions and thus, selected TDO variants were tested in cotton. Three TDO variants, D08, TDO_6, and TDO_8 were transformed into cotton (along with the Os.TDO control) using similar expression elements in single-cassette vectors or as part of multi-cassette vectors. R2 transgenic cotton plants were then screened for tolerance to mesotrione. Sixteen plants from two events each per construct were sprayed with two rates (2X and 8X) of mesotrione at V3 stage under normal (80° F.) and hot (100° F.) growing conditions. In addition, the effect of heat treatment on TDO accumulation in cotton plants were measured by ELISA. Cotton plants were planted and grown under normal greenhouse conditions (80° F. day/70° F. night) until V3 growth stage. Half of the plants were then moved to a higher temperature growth chamber (100° F. day/82° F. night) for the heat treatment, whereas the remaining half of the plants stayed in the same greenhouse (80° F. day/70° F. night). At day 3 after the plants were placed under different temperature conditions, leaf samples were collected for TDO protein measurement. The plants in 100° F. growth chamber and in 80° F. greenhouse were both sprayed with 2X mesotrione (210 g a.i./ha). Leaf samples were collected again 7 days after mesotrione treatment (DAT: Days After Treatment) for protein assay. Table 5 compares protein levels of the TDO variants in transgenic cotton plants grown under the two tested conditions. The protein levels for the TDO variants were measured at three time points for plants: 1) just before entering the high temperature treatment, 2) three days following placement into control (normal growth temperature) or high temperature (100° F.), and 3) 7 days after a 2X mesotrione spray.

[2] = test system: transgenic soybean plants; assay: Mesotrione injury of R0 transgenic soybean plants expressing TDO homologs; details: 210 g a.i./ha mesotrione at V3-V4, rated 7-14 days after treatment, mean of all tested events
Description: Plant expression vectors comprising the selected TDO homologs under the control of one of two constitutive promoters were transformed into soybean via an Agrobacterium tumefaciens-mediated method. Following Agrobacterium transformation, R0 transgenic soybean plants containing a single copy of the transgene were identified through molecular characterization and segregation analysis. Transgenic and wild-type (control) plants were grown in 6-inch pots filled with BM7 soilless mix in a growth chamber under the conditions of 28° C./23° C. (light/dark) and a 16 hr light/8 hr dark photoperiod. Plants were fertilized with 15-5-15 liquid fertilizer at the V3-V4 growth stage and treated with 210 g a.i./ha mesotrione (1X=105 g a.i./ha; Callisto®, Syngenta in 1% crop oil). Plants were visually rated 7-14 days after treatment on a scale of 0% to 100%, with 0%=no injury and 100%=plant death, relative to the wild-type controls. The results summarized in Table 2 represent the mean of all tested events (10-15) for each construct.

[3] = promoter Constitutive 2, 3' UTR B

B1: TDO_6: Os.TDO variant, SEQ ID NO:38, G242S-P256E relative to D08 (protein)
chain: MADESWRAPALVQELAAKGVEEPPSRYLLREQDRPDVKLVAAELPEPIPVVDLGRLDGAEEATKLRVALQNWGFFLLTNHGIEASLMDDVMNLSREFFNQPIERKQKFSNLIDGKHFQIEGYGTDRVVTQDQVLDWSDRLHLRVEPKEEQDLAFWPDHPESFRDVLHKYASGCKRIRDDIIQAMAKLLELDEDYFLDRFNEAPTFARFNYYPPCPRPDLVFGIRPHSDGGLLTILLVDKDVSGLQVQRDGKWSNVEATPHTLLINLGDTMEVMSNGIFKSPVHRVVTNAEKERISLAMLYSVNDEKDIEPAAGLLDENRPARYRKVSVEEFRAGIFGKFSRGERYIDSLRI
modifications: TDO variant sequence
[1]
  R0 % Injury: 31%
Transgenic cotton plants; Under 80° F.
  Crop Injury (%), 210 g/ha (2X) Mesotrione: 0%
  Crop Injury (%), 840 g/ha (8X) Mesotrione: 0%
Transgenic cotton plants; Under 100° F.
  Crop Injury (%), 210 g/ha (2X) Mesotrione: 0%
  Crop Injury (%), 840 g/ha (8X) Mesotrione: 0%
Transgenic cotton plants; cotton at the higher temperature
  injury rates relative to Os.TDO controls: trending even lower than the Os.TDO controls

B2: TDO_4: Os.TDO variant, SEQ ID NO:34, H116N-G242S relative to D08 (protein)
chain: B1 chain with H116N, E256P
modifications: TDO variant sequence
[1]
  R0 % Injury: 32%

B3: TDO_5: Os.TDO variant, SEQ ID NO:36, E120Q-G242S relative to D08 (protein)
chain: B1 chain with E120Q, E256P
modifications: TDO variant sequence
[1]
  R0 % Injury: 30%

B4: TDO_7: Os.TDO variant, SEQ ID NO:40, G242S-S274C relative to D08 (protein)
chain: B1 chain with E256P, S274C
modifications: TDO variant sequence
[1]
  R0 % Injury: 32%

B5: TDO_3: Os.TDO variant, SEQ ID NO:32, P35S-G242S relative to D08 (protein)
chain: B1 chain with P35S, E256P
modifications: TDO variant sequence
[1]
  R0 % Injury: 35%

B6: TDO_8: Os.TDO variant, SEQ ID NO:42, Q32K-I48L-V133I-G242S-P256E relative to D08 (protein)
chain: B1 chain with Q32K, I48L, V133I
modifications: TDO variant sequence
[1]
  R0 % Injury: 31%
Transgenic cotton plants; Under 80° F.
  Crop Injury (%), 210 g/ha (2X) Mesotrione: 0.25%
  Crop Injury (%), 840 g/ha (8X) Mesotrione: 0%
Transgenic cotton plants; Under 100° F.
  Crop Injury (%), 210 g/ha (2X) Mesotrione: 0.27%
  Crop Injury (%), 840 g/ha (8X) Mesotrione: 0%

B7: TDO_1: Os.TDO variant, SEQ ID NO:28, P35S-H116N relative to D08 (protein)
chain: B1 chain with P35S, H116N, S242G, E256P
modifications: TDO variant sequence
[1]
  R0 % Injury: 30%

B8: ANDge.TDO: TDO homolog from Andropogon gerardii, SEQ ID NO:12 (protein, listed as Andropogon gerardii)
chain: MASSSWRVPTPVQELAAGVVEPPSQFVLQEQDRPESLLLAADMPEPIPVIDLSRLSAADEASKLQSALQTWGLFLVTNHGIEASLMDEVMAASRDFFHQPLQEKQKYSNLIGGKRFQMEGYGNDMVTSQDQILDWQDRLQLRVEPEDERNLAYWPKHPDSFRDLLHEYASKTKKVRDNLLRAMGKILELGDDYFISQIGEKASAVARFNYYPPCPRPELVFGIKPHSDGGAVTILLVDNDVGGLQVQKDGIWYTVPSKPHTLVVNLADSMEIMNNGIFKSPVHRVVTNAEKERLSLAMFYGVEGQKMLEPAAGLLGEDRPARYRKIKAADYIVGLRQGIAKGQRFIETLKI
[2]; [3]
  % Injury: 55%

B9: Cl.Col.TDO2: TDO homolog from Coix lacryma-jobi, SEQ ID NO:16 (protein)
chain: MASSSWRVPTPVQELAAGVVEPPSQFVLQEQDRPESLLLATDMPEPIPVIDLSRLAAADEASKLRSALQTWGLFLVTNHGIEASLMDDVMAASRDFFYQPLEEKQKYSNLVGGKRFQMEGYGNDMVASQDQVLDWQDRLQLRVEPEDERNLAYWPKHPDSFRDLLHEYASKTKKVRDNVLQAMGKLLELGEDYFISQIGGKASAIARFNYYPPCPRPELVFGIKPHSDGGAVTILLVDNDVGGLQVQKDGIWYTVPSKPHTLVVNLGDSMEILNNGIFKSPVHRVVTNAEKERLSLAMFYGVEGQKVLEPAAALLGEERPARYRKIKAADYIVGLRQGIARGNRFIETLKI
modifications: Coix lacryma-jobi
[2]; [3]
  % Injury: 53%

B10: Si.TDO: TDO homolog from Setaria italica, SEQ ID NO:8 (protein, listed as Setaria italica)
chain: MANESWKIPMLVQELAAKVQEPPSRYVQPEQQHPVSLVVGAEKPEAIPVIDLSRLLAADGADEEGSKLRLALQSWGLFLIDNHGIETSLMDDLINASREFFHLPLEEKQKCSNLIDGKHYQVEGYGNDPVASKDQILDWLDRLHLRVEPEDERNLVHWPEHPNSFRALLHKYTLNCKRIKDRILWAMAKSLGLDEDYIVAQFSGKAPSFARFNYYPPCPRPDIVFGAKPHSDGGVLTILLMDKDVGGLQVLRDGVWHNVPTSPHRLLVNIGDFSEIMSNGIFKSPVHRVVTNMGKERISLAMFHGLDPEKEIEPATALLHEKQLARYRKIKAKVYLAGFYEHFCRGTRFIDSEDLREVA
[2]; promoter Constitutive 1, 3' UTR A
  % Injury: 35%

B11: Cl.Col.TDO1: TDO homolog from Coix lacryma-jobi, SEQ ID NO:14 (protein)
chain: MASSSWKVPTPVQELAATLEEPPSRYVLREKDRPSSPLVADDMPEPLPVINLSRLSEDAAEAAKLEAALQSWGLVLVTNHGIETSLMDDVMDTSREFFNQTLEEKQKYSNLIEGKRFQMEGYGNDRVSTEHQILNWNDRLHLKVAPDDERNYTHWPKHPESFRDVLHEYTLKTKKIRDNICSNGQDIGARFNYYPPCPRPDLVNGVQPHSDAGVLTILLVDKEIRGLQVQRDGIWYNVPRKPYTLLINLGDVMEIMSNGIFKSPVHRVVTNTEKERISLAMFYGVDAENVLEPAAGLLDEKRPARYRKVEITDFVAGVHEHFSRGTRFIESLKI
modifications: Coix lacryma-jobi
[2]; [3]
  % Injury: 61%

B12: Ta.TDO: TDO homolog from Triticum aestivum, SEQ ID NO:10 (A4S from codon optimization) (protein, listed as Triticum aestivum)
chain: MASSDESPMVRPTVQELASAGVEEPPRQYVLPEQDRHGDLLAADEFPEPIPLIDLSRLTDADEAERLRAALQTWGFFLATNHGIEGSLMDAMMSVSREFFRQPAEEKQKCSNLVDGNGKDYQVEGYGSDKVVSEDQVLNWSDRLHLRVEPEDERNFAKWPSHPESFRDVLKEYASRTKEIRDLVLRSIAKLLEIDEDYFVNQISNKASGFARFNYYPPCPRPDLVLGLRAHSDGGLLTILFNDDTVGGLQVQRDGRWYNVSAKPHTLLINLADCLEIMNNGIFTSPIHRVVTNIKKDRLSLAVFYAVDAETMLEPAPGLLDDKRPPRYRKMLAKDFVAGLFEHFRQGKRFINTLKI
[2]; [3]
  % Injury: 50%
